This note sets out measurements from patent publication US20210113615A1 (LUDWIG INSTITUTE FOR CANCER RESEARCH, published 2021).

Where two headings read alike, the source gives them in different places.

Assay [1] has as its target T1, Bcl-XL (B-cell lymphoma-extra-large), wildtype sequence as tested (human, UniProt Q07817 1-209).
T1 construct: It is shorter than full-length Bcl-xL: E96 of the wildtype numbering stands at position 56; Bcl-XL was immobilized in SPR; also called Protein B
Description: SPR, LD3:Bcl-XL binding interaction, sensorgrams with fitted curves.

For assay [2], the target named is T1, Bcl-XL (B-cell lymphoma-extra-large), ….
For assay [3] the target is unchanged. In words: SPR, Biacore 8K; Bcl-xL immobilized, Des3 variant injected in serial dilutions. The method, then: (§1) Affinity (nM) values were calculated by Surface plasmon resonance (SPR) data on a Biacore 8K device.
(In general: Surface plasmon resonance follows binding to a sensor surface in real time, without labels.)

The target is the same in assay [4]. In words: method not stated for this value (Example 1); Example 1, binder named 1LE4A; approximate value, method not stated.
Assay [5] concerns the target T2, Bcl-2 (BCL-2 sequence as tested in Example 5) (Homo sapiens (Human), UniProt P10415 1-207).
T2 construct: It was immobilized in SPR
In words: not stated here (heading in the sequence table); target Bcl-2 (first of the two values, 'respectively').

Assay [6] has as its target T2, Bcl-2 (BCL-2 sequence as tested in …). In words: SPR, Biacore 8K; Bcl-2 immobilized, Des3 variant injected in serial dilutions. How it is done:
as §1

T2 sequence (P10415 1-207 limits assumed): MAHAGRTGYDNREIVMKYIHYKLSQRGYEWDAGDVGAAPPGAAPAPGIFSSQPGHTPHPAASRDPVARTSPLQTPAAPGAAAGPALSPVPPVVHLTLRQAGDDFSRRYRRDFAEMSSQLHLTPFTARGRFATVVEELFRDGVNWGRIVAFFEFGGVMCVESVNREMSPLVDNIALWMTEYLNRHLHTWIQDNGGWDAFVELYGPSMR
T1 sequence (Q07817 other isoform, or with tags, fused parts or gaps limits assumed): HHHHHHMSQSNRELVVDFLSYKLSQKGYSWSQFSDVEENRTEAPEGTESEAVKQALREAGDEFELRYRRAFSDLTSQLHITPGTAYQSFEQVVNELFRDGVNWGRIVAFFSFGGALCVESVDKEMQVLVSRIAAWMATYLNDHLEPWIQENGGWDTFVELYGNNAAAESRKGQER

B1: LD3 (lead design 3: Bcl-XL binder designed on human apolipoprotein E4, PDB ID 1LE4 chain A) (designed binder)
chain: HHHHHHQRWELALGRFLEYLSWVSTLSEQVQEELLSSQVTQELRALMDETMKELKAYKSELEEQLTPVAEETRARLSKELQAAQARLGADMEDVRGRLVQYRGEVQAMLGQSTEELRVRLASHLIALQLRLIGDAFDLQKRLAVYQAGA
notes: No single sentence states these identities; also called Des3; DES3
As a reminder, the Kd is a measure of binding affinity in units of concentration. Read a high Kd as weaker binding. B1: the Kd is roughly 0.004 nM in assay [1]; 0.004 nM in assay [2]; 0.004 nM in assay [3]; roughly 0.4 nM in assay [4]; 0.8 nM in assay [5]; 0.8 nM in assay [6].

B2: Des3a (slightly weaker affinity binder, GLU124ALA) (designed binder)
chain: QRWELALGRFLAYLSWVSTLSEQVQEELLSSQVTQELRALMDETMKELKAYKSELEEQLTPVAEETRARLSKELQAAQARLGADMEDVRGRLVQYRGEVQAMLGQSTEELRVRLASHLIALQLRLIGDAFDLQKRLAVYQAGA
Molecule B2 yielded a dissociation constant (Kd) in assay [6] of 16.8 nM. In other words, the double-digit nanomolar range.

B3: Des3b (medium affinity binder, LEU235ALA) (designed binder)
chain: QRWELALGRFLEYLSWVSTLSEQVQEELLSSQVTQELRALMDETMKELKAYKSELEEQLTPVAEETRARLSKELQAAQARLGADMEDVRGRLVQYRGEVQAMLGQSTEELRVRLASHLIALQARLIGDAFDLQKRLAVYQAGA
For B3, the dissociation constant (Kd) in assay [6] turned out to be 64.1 nM.

B4: Des3c (weakest affinity Des3 binder, ASP240ALA) (designed binder)
chain: QRWELALGRFLEYLSWVSTLSEQVQEELLSSQVTQELRALMDETMKELKAYKSELEEQLTPVAEETRARLSKELQAAQARLGADMEDVRGRLVQYRGEVQAMLGQSTEELRVRLASHLIALQLRLIGAAFDLQKRLAVYQAGA
As to B4, binding in assay [6] was characterised by a dissociation constant (Kd) of 147 nM. Against the preceding molecule, the Kd is about 2.3-fold higher.
